This is an account of results in the supplement of paper PMC9112550, “Optimization of the antimicrobial peptide Bac7 by deep mutational scanning” (BMC Biology, 2022).

The data set concerns Escherichia coli TOP10. Nature of the data set: shrunken log2 fold change of peptide-encoding DNA abundance (4.5 h post-induction vs induction); higher = less antimicrobial activity (less host growth inhibition). The note with it: time post-induction: 4.5 h; library: site-saturation at positions 5, 18, 19, 20.
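Also: peptides expressed intracellularly from a pBAD plasmid library in pooled LB shake-flask culture, induced with 0.3% L-arabinose, DNA abundance read by NGS, three biological replicates, DESeq2 with apeglm shrinkage.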

For RRIRPRPPRLPRPRPRPDFTPRP, the “shrunken log2 fold change” value is -0.411.

Take RRIRRRPPRLPRPRPRPDGCPRP: the “shrunken log2 fold change” value came to 0.165. As for RRIRKRPPRLPRPRPRPTCCPRP, the “shrunken log2 fold change” value amounted to 0.0692. As to RRIRYRPPRLPRPRPRPKTIPRP, the “shrunken log2 fold change” value is -0.421. For RRIRARPPRLPRPRPRPWPLPRP the value was -0.0297.

For RRIRVRPPRLPRPRPRPTNFPRP, the “shrunken log2 fold change” value was -0.287. For RRIRVRPPRLPRPRPRPCNCPRP, the “shrunken log2 fold change” value is -0.0105. Turning to RRIRARPPRLPRPRPRPKYVPRP, the “shrunken log2 fold change” value was -0.145.

On to RRIRGRPPRLPRPRPRPDNFPRP, for which the “shrunken log2 fold change” value turned out to be 0.169. As for RRIRERPPRLPRPRPRPRKDPRP, the “shrunken log2 fold change” value was -0.245.

Regarding RRIRHRPPRLPRPRPRPLIIPRP, the “shrunken log2 fold change” value was -0.377.

As for RRIRTRPPRLPRPRPRPFQQPRP, the “shrunken log2 fold change” value was 0.0654.

On to RRIRCRPPRLPRPRPRPCWGPRP, for which the “shrunken log2 fold change” value was -0.195.

Consider RRIRRRPPRLPRPRPRPDANPRP, for which the “shrunken log2 fold change” value came out at 0.555. With RRIRNRPPRLPRPRPRPLEYPRP, the “shrunken log2 fold change” value was -0.816. In the case of RRIRYRPPRLPRPRPRPHGHPRP, the “shrunken log2 fold change” value is -0.358. RRIRRRPPRLPRPRPRPVFWPRP: the “shrunken log2 fold change” value was 0.369. Regarding RRIRKRPPRLPRPRPRPHQYPRP, the “shrunken log2 fold change” value is -0.293. For RRIRPRPPRLPRPRPRPWQEPRP the value was 0.00579; for RRIRSRPPRLPRPRPRPGNHPRP, -0.311. On to RRIRMRPPRLPRPRPRPVPHPRP, for which the “shrunken log2 fold change” value is 0.537. With RRIRRRPPRLPRPRPRPCGRPRP, the “shrunken log2 fold change” value is -0.0337. As for RRIRIRPPRLPRPRPRPCMSPRP, the “shrunken log2 fold change” value was -0.347. With RRIRQRPPRLPRPRPRPCYFPRP, the “shrunken log2 fold change” value is -0.734. On to RRIRERPPRLPRPRPRPSFDPRP, for which the “shrunken log2 fold change” value is -0.417. The result for RRIRTRPPRLPRPRPRPRQIPRP reads 0.0896; that for RRIRVRPPRLPRPRPRPWAYPRP, -0.323. The result for RRIRVRPPRLPRPRPRPAVQPRP reads -0.121; that for RRIRDRPPRLPRPRPRPWCHPRP, -0.407. Consider RRIRFRPPRLPRPRPRPPYMPRP, for which the “shrunken log2 fold change” value is -0.43. Consider RRIRHRPPRLPRPRPRPGMHPRP, for which the “shrunken log2 fold change” value is -0.01. RRIRTRPPRLPRPRPRPQHCPRP: the “shrunken log2 fold change” value was -0.0947.

For RRIRYRPPRLPRPRPRPVLVPRP, the “shrunken log2 fold change” value was -0.507. On to RRIRGRPPRLPRPRPRPDMIPRP, for which the “shrunken log2 fold change” value worked out at 0.531.

Take RRIRFRPPRLPRPRPRPGPLPRP: the “shrunken log2 fold change” value was 0.262. The result for RRIRSRPPRLPRPRPRPSKDPRP reads -0.61; that for RRIRARPPRLPRPRPRPNLTPRP, 0.287; that for RRIRNRPPRLPRPRPRPARPPRP, 2.86.

Turning to RRIRARPPRLPRPRPRPMKTPRP, the “shrunken log2 fold change” value was determined as 0.0191. Turning to RRIRGRPPRLPRPRPRPAHRPRP, the “shrunken log2 fold change” value amounted to 0.224. For the sequence RRIRARPPRLPRPRPRPHRVPRP, the “shrunken log2 fold change” value was -0.13. For the sequence RRIRVRPPRLPRPRPRPLYTPRP, the “shrunken log2 fold change” value is -0.345. Turning to RRIRSRPPRLPRPRPRPALAPRP, the “shrunken log2 fold change” value was 0.419. Turning to RRIRTRPPRLPRPRPRPRCVPRP, the “shrunken log2 fold change” value is -0.0783. For the sequence RRIRNRPPRLPRPRPRPDLPPRP, the “shrunken log2 fold change” value was -0.221.

As to RRIRCRPPRLPRPRPRPSVFPRP, the “shrunken log2 fold change” value was -0.614. The result for RRIRHRPPRLPRPRPRPICKPRP reads -0.204; that for RRIRNRPPRLPRPRPRPWFSPRP, -0.796. As to RRIRERPPRLPRPRPRPVQPPRP, the “shrunken log2 fold change” value was found to be 0.336. Regarding RRIRQRPPRLPRPRPRPWPMPRP, the “shrunken log2 fold change” value was -0.0342. Take RRIRVRPPRLPRPRPRPQNQPRP: the “shrunken log2 fold change” value is -0.388. Regarding RRIRHRPPRLPRPRPRPYFEPRP, the “shrunken log2 fold change” value was -0.76. The result for RRIRIRPPRLPRPRPRPGECPRP reads -0.143; that for RRIRSRPPRLPRPRPRPKTEPRP, -0.0689. Regarding RRIRVRPPRLPRPRPRPNTKPRP, the “shrunken log2 fold change” value came out at 0.181. Consider RRIRIRPPRLPRPRPRPRKAPRP, for which the “shrunken log2 fold change” value was -0.000442.

Turning to RRIRYRPPRLPRPRPRPYEPPRP, the “shrunken log2 fold change” value is -0.248. The result for RRIRARPPRLPRPRPRPNRNPRP reads -0.266. Take RRIRRRPPRLPRPRPRPDIEPRP: the “shrunken log2 fold change” value came out at 0.172.

With RRIRERPPRLPRPRPRPKLSPRP, the “shrunken log2 fold change” value is -0.173. Regarding RRIRHRPPRLPRPRPRPDNSPRP, the “shrunken log2 fold change” value was -1.1. In the case of RRIRKRPPRLPRPRPRPWITPRP, the “shrunken log2 fold change” value is -0.105. In the case of RRIRVRPPRLPRPRPRPENSPRP, the “shrunken log2 fold change” value was -0.522. For the sequence RRIRTRPPRLPRPRPRPENTPRP, the “shrunken log2 fold change” value is -0.0831.

As for RRIRRRPPRLPRPRPRPFTTPRP, the “shrunken log2 fold change” value was -0.0176. For RRIRGRPPRLPRPRPRPQTSPRP, the “shrunken log2 fold change” value stood at 0.407. On to RRIRIRPPRLPRPRPRPATQPRP, for which the “shrunken log2 fold change” value is 0.129.

Regarding RRIRPRPPRLPRPRPRPFNVPRP, the “shrunken log2 fold change” value is -0.0975.

For RRIRARPPRLPRPRPRPMQMPRP, the “shrunken log2 fold change” value is 0.626. For RRIRLRPPRLPRPRPRPFPWPRP, the “shrunken log2 fold change” value is -0.0836.

With RRIRYRPPRLPRPRPRPWNNPRP, the “shrunken log2 fold change” value was -0.656. For the sequence RRIRQRPPRLPRPRPRPFLPPRP, the “shrunken log2 fold change” value was -0.0691. As to RRIRLRPPRLPRPRPRPTKSPRP, the “shrunken log2 fold change” value was determined as 0.127. On to RRIRLRPPRLPRPRPRPVAFPRP, for which the “shrunken log2 fold change” value is 0.0295.

For RRIRLRPPRLPRPRPRPCIDPRP, the “shrunken log2 fold change” value was -0.166. For RRIRRRPPRLPRPRPRPKPHPRP the value was 0.536. For RRIRYRPPRLPRPRPRPAHPPRP the value was -0.0595; for RRIRGRPPRLPRPRPRPPARPRP, 1.2; for RRIRCRPPRLPRPRPRPEPNPRP, 0.265. RRIRPRPPRLPRPRPRPQIEPRP: the “shrunken log2 fold change” value is -0.0699.

Turning to RRIRARPPRLPRPRPRPGAYPRP, the “shrunken log2 fold change” value worked out at 0.249.

As for RRIRMRPPRLPRPRPRPVFVPRP, the “shrunken log2 fold change” value stood at 0.0672.

As for RRIRQRPPRLPRPRPRPCQLPRP, the “shrunken log2 fold change” value was -0.0105.

Turning to RRIRIRPPRLPRPRPRPFTYPRP, the “shrunken log2 fold change” value is -0.00992.

For RRIRPRPPRLPRPRPRPIVKPRP, the “shrunken log2 fold change” value was found to be 0.000733. Take RRIRSRPPRLPRPRPRPPQYPRP: the “shrunken log2 fold change” value was -0.0375.

Turning to RRIRYRPPRLPRPRPRPEPAPRP, the “shrunken log2 fold change” value is 0.168. As for RRIRSRPPRLPRPRPRPMARPRP, the “shrunken log2 fold change” value is 0.101. RRIRNRPPRLPRPRPRPFIQPRP: the “shrunken log2 fold change” value is -0.737. For RRIRKRPPRLPRPRPRPLITPRP the value was 0.0992; for RRIRERPPRLPRPRPRPKPDPRP, 0.0317. For RRIRMRPPRLPRPRPRPLNKPRP, the “shrunken log2 fold change” value was found to be 0.118. As to RRIRPRPPRLPRPRPRPDAYPRP, the “shrunken log2 fold change” value is -0.334.

In the case of RRIRERPPRLPRPRPRPSSIPRP, the “shrunken log2 fold change” value was -0.855. In the case of RRIRMRPPRLPRPRPRPNCSPRP, the “shrunken log2 fold change” value was determined as 0.135. In the case of RRIRGRPPRLPRPRPRPLILPRP, the “shrunken log2 fold change” value is 0.203. Regarding RRIRHRPPRLPRPRPRPPMWPRP, the “shrunken log2 fold change” value is 1.04.

As for RRIRARPPRLPRPRPRPKVQPRP, the “shrunken log2 fold change” value is 0.0571. As for RRIRRRPPRLPRPRPRPGFEPRP, the “shrunken log2 fold change” value was 0.293. In the case of RRIRRRPPRLPRPRPRPGCRPRP, the “shrunken log2 fold change” value turned out to be 0.459.

Turning to RRIRKRPPRLPRPRPRPRMLPRP, the “shrunken log2 fold change” value was found to be 0.588. Regarding RRIRKRPPRLPRPRPRPQMMPRP, the “shrunken log2 fold change” value was -0.0245. As for RRIRCRPPRLPRPRPRPGIYPRP, the “shrunken log2 fold change” value is -0.0438. Regarding RRIRIRPPRLPRPRPRPCLQPRP, the “shrunken log2 fold change” value is -0.0932. For RRIRPRPPRLPRPRPRPVQEPRP the value was -0.0759; for RRIRPRPPRLPRPRPRPCTWPRP, 0.025; for RRIRWRPPRLPRPRPRPSMFPRP, -0.0441. For RRIRGRPPRLPRPRPRPYCCPRP the value was -0.0424. For RRIRGRPPRLPRPRPRPDAHPRP the value was 0.421. Regarding RRIRRRPPRLPRPRPRPVAMPRP, the “shrunken log2 fold change” value came out at 0.342. Turning to RRIRTRPPRLPRPRPRPTFWPRP, the “shrunken log2 fold change” value amounted to 0.467. Regarding RRIRERPPRLPRPRPRPPSGPRP, the “shrunken log2 fold change” value was determined as 0.275. RRIRPRPPRLPRPRPRPSCYPRP: the “shrunken log2 fold change” value is -0.332. RRIRIRPPRLPRPRPRPSSVPRP: the “shrunken log2 fold change” value is -1.03.

As to RRIRVRPPRLPRPRPRPNLIPRP, the “shrunken log2 fold change” value was -0.149. For the sequence RRIRGRPPRLPRPRPRPFVEPRP, the “shrunken log2 fold change” value was 0.236.

Regarding RRIRHRPPRLPRPRPRPNQNPRP, the “shrunken log2 fold change” value is -0.285. As for RRIRRRPPRLPRPRPRPHPTPRP, the “shrunken log2 fold change” value amounted to 0.563. For RRIRCRPPRLPRPRPRPPQGPRP the value was 0.29; for RRIRWRPPRLPRPRPRPHMSPRP, 0.033. Turning to RRIRYRPPRLPRPRPRPCACPRP, the “shrunken log2 fold change” value was found to be 0.0891. For RRIRYRPPRLPRPRPRPSFYPRP the value was -1.06.

As to RRIRCRPPRLPRPRPRPFQDPRP, the “shrunken log2 fold change” value is -0.169. Regarding RRIRKRPPRLPRPRPRPDGGPRP, the “shrunken log2 fold change” value came out at 0.157. Consider RRIRQRPPRLPRPRPRPMNCPRP, for which the “shrunken log2 fold change” value was -0.0255.
